Kd data for one molecule are collected here from PMC12697983 (PLOS Pathogens, 2025).

Usually Kd stands for the concentration at which binding is half-saturated.

For this test, the target named is SARS-CoV-2 wild-type spike receptor-binding domain (WT-RBD) (SARS-CoV-2, UniProt P0DTC2). The test is described as follows: SPR. The following applies: both partners purified.

B1: 1C4 (murine monoclonal antibody, IgG format) (antibody, V domains shown)
VH: QIQLVQSGPELKKPGETVKISCKASGYTFTDYGLNWVKQAPGKGLKWMGWINTYSGEPTYNDEFRGRFAFSLETSTITAYLKINNLKNEDTATYFCARGGNWDWYFDVWGAGTTVTVSS
VL: DIVLTQSPATLSVTPGDNVSLSCRASQIISNNLHWYQQKSHESPRLLIKYASQSISGIPSRFSGSGSGTDFTLSINSVETEDFGMYFCQQSNTWPLTCGSGTKLELN
B1: the Kd amounted to 0.488 nM.
